Residue numbers refer to the chain shown, from its start. In names and notes the source's numbering stands.
How the values were obtained:
[1] = target: T1, human CD81 on CD81-expressing cells (Jurkat E6.1, human PBMC, Ramos) (human, UniProt P60033 1-236); experiment: cell-based or functional assay
T1 sequence: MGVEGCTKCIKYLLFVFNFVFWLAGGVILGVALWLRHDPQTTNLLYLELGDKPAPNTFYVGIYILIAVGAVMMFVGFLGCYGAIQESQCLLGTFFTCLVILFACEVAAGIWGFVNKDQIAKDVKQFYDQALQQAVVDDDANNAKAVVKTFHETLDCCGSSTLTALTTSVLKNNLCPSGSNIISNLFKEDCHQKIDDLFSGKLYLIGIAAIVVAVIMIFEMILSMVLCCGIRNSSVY

[2] = target: T2, human CD81 mutant V169L (human, UniProt P60033 1-236, limits assumed); experiment: ELISA
T2 construct: as m30; not shown: C-terminal V5 and 6xHis tags
T2 sequence: T1 sequence with V169L

[3] = target: T3, human CD81 mutant A164V (human, UniProt P60033 1-236, limits assumed); experiment: ELISA
T3 construct: as m30; not shown: C-terminal V5 and 6xHis tags
T3 sequence: T1 sequence with A164V

[4] = target: T4, human CD81 mutant D137E (human, UniProt P60033 1-236, limits assumed); experiment: ELISA
T4 construct: as m30; not shown: C-terminal V5 and 6xHis tags
T4 sequence: T1 sequence with D137E

[5] = target: T5, human CD81 mutant A164T (human, UniProt P60033 1-236, limits assumed); experiment: ELISA
T5 construct: as m30; not shown: C-terminal V5 and 6xHis tags
T5 sequence: T1 sequence with A164T

[6] = target: T6, human CD81 mutant V169A (human, UniProt P60033 1-236, limits assumed); experiment: ELISA
T6 construct: as m30; not shown: C-terminal V5 and 6xHis tags
T6 sequence: T1 sequence with V169A

[7] = target: T7, human CD81 mutant D137A (human, UniProt P60033 1-236, limits assumed); experiment: ELISA
T7 construct: as m30; not shown: C-terminal V5 and 6xHis tags
T7 sequence: T1 sequence with D137A

[8] = target: T8, human CD81 mutant L165A (human, UniProt P60033 1-236, limits assumed); experiment: ELISA
T8 construct: as m30; not shown: C-terminal V5 and 6xHis tags
T8 sequence: T1 sequence with L165A

[9] = target: T9, human CD81 mutant V135A (human, UniProt P60033 1-236, limits assumed); experiment: ELISA
T9 construct: as m30; not shown: C-terminal V5 and 6xHis tags
T9 sequence: T1 sequence with V135A

[10] = target: T10, human CD81 mutant S168T (human, UniProt P60033 1-236, limits assumed); experiment: ELISA
T10 construct: as m30; not shown: C-terminal V5 and 6xHis tags
T10 sequence: T1 sequence with S168T

[11] = target: T11, human CD81 mutant I194A (human, UniProt P60033 1-236, limits assumed); experiment: ELISA
T11 construct: as m30; not shown: C-terminal V5 and 6xHis tags
T11 sequence: T1 sequence with I194A

[12] = target: T12, human CD81 mutant N172A (human, UniProt P60033 1-236, limits assumed); experiment: ELISA
T12 construct: as m30; not shown: C-terminal V5 and 6xHis tags
T12 sequence: T1 sequence with N172A

[13] = target: T13, human CD81 mutant V135L (human, UniProt P60033 1-236, limits assumed); experiment: ELISA
T13 construct: as m30; not shown: C-terminal V5 and 6xHis tags
T13 sequence: T1 sequence with V135L

[14] = target: T14, human CD81 mutant H151R (human, UniProt P60033 1-236, limits assumed); experiment: ELISA
T14 construct: as m30; also called H151B; not shown: C-terminal V5 and 6xHis tags
T14 sequence: T1 sequence with H151R

[15] = target: T15, human CD81 mutant G158S (human, UniProt P60033 1-236, limits assumed); experiment: ELISA
T15 construct: as m30; not shown: C-terminal V5 and 6xHis tags
T15 sequence: T1 sequence with G158S

B1: 002-C02 (antibody, human IgG4 S228P, lambda, V domains shown)
VH: EVQLLESGGGLVQPGGSLRLSCAASGFTFSSNYMSWVRQAPGKGLEWVSYISSSSSYTDYADTVKGRFTISRDNSKNTLYLQMNSLRAEDTAVYYCASYSYGRDSFDYWGQGTLVTVSS
VL: QSVLTQPPSASGTPGQRVTISCTGSTSNIGAGYDTHWYQQLPGTAPKLLIYGNSNRPSGVPDRFSGSKSGTSASLAISGLRTEDEADYYCQSYDTNLSVWVFGGGTKLTVLG
notes: IgG4 S228P
Jurkat chemotaxis (% of control IgG4) at 0.001 µg/mL [1]: 106%
Jurkat chemotaxis (% of control IgG4) at 0.01 µg/mL [1]: 104%
Jurkat chemotaxis (% of control IgG4) at 0.1 µg/mL [1]: 31%
Jurkat chemotaxis (% of control IgG4) at 1 µg/mL [1]: -5%
Jurkat chemotaxis (% of control IgG4) at 10 µg/mL [1]: -4%
relative binding affinity [2]: < 20%
relative binding affinity [3]: < 20%
relative binding affinity [4]: < 20%
relative binding affinity [5]: < 20%
relative binding affinity [6]: < 20%
relative binding affinity [7]: < 20%
relative binding affinity [8]: < 20%
relative binding affinity [9]: < 20%

B2: 002-F01 (antibody, human IgG4 S228P, lambda, V domains shown)
VH: B1 VH with S56T, T63S, S98R, S105N
VL: B1 VL with T82S, V99A
notes: IgG4 S228P
Jurkat chemotaxis (% of control IgG4) at 0.001 µg/mL [1]: 89%
Jurkat chemotaxis (% of control IgG4) at 0.01 µg/mL [1]: 87%
Jurkat chemotaxis (% of control IgG4) at 0.1 µg/mL [1]: 35%
Jurkat chemotaxis (% of control IgG4) at 1 µg/mL [1]: 4%
Jurkat chemotaxis (% of control IgG4) at 10 µg/mL [1]: 9%
relative binding affinity [2]: < 20%
relative binding affinity [10]: < 20%
relative binding affinity [3]: < 20%
relative binding affinity [5]: < 20%
relative binding affinity [6]: < 20%
relative binding affinity [8]: < 20%
relative binding affinity [11]: < 20%
relative binding affinity [9]: < 20%

B3: 003-A10 (antibody, human IgG4 S228P, lambda, V domains shown)
VH: B1 VH with S56T, T63S, S98R, S105T
VL: B1 VL with P8F, T82S
notes: IgG4 S228P
Jurkat chemotaxis (% of control IgG4) at 0.001 µg/mL [1]: 104%
Jurkat chemotaxis (% of control IgG4) at 0.01 µg/mL [1]: 93%
Jurkat chemotaxis (% of control IgG4) at 0.1 µg/mL [1]: 15%
Jurkat chemotaxis (% of control IgG4) at 1 µg/mL [1]: 3%
Jurkat chemotaxis (% of control IgG4) at 10 µg/mL [1]: 3%
relative binding affinity [12]: < 20%
relative binding affinity [6]: < 20%

B4: 003-F08 (antibody, human IgG4 S228P, lambda, V domains shown)
VH: B1 VH with L45P, S56T, T58A, T63S, S98R, S105N
VL: B1 VL with P8S, T82S, V99A
notes: IgG4 S228P
Jurkat chemotaxis (% of control IgG4) at 0.001 µg/mL [1]: 80%
Jurkat chemotaxis (% of control IgG4) at 0.01 µg/mL [1]: 79%
Jurkat chemotaxis (% of control IgG4) at 0.1 µg/mL [1]: 21%
Jurkat chemotaxis (% of control IgG4) at 1 µg/mL [1]: -3%
Jurkat chemotaxis (% of control IgG4) at 10 µg/mL [1]: -4%
relative binding affinity [2]: < 20%
relative binding affinity [3]: < 20%
relative binding affinity [4]: < 20%
relative binding affinity [13]: < 20%
relative binding affinity [14]: < 20%
relative binding affinity [15]: < 20%
relative binding affinity [5]: < 20%
relative binding affinity [6]: < 20%
relative binding affinity [7]: < 20%
relative binding affinity [8]: < 20%
relative binding affinity [9]: < 20%
